For one molecule, Kd results are on record in US20240425569A1 (VISTERRA, published 2024).

Substitutions are numbered along the chain they refer to. Read-outs that look alike come from different tables or passages of the source.

The target of assay [1] is T1, Nicaragua/2010 (serotype III EDIII).
T1 construct: also called ED3-DV3/Nicaragua10; DENV-3 Nic
T1 E protein domain III (EDIII): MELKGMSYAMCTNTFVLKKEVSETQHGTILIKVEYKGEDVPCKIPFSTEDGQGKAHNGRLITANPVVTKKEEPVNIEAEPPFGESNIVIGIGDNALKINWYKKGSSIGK

Assay [2] has as its target T2, EDIII-DV4 (E protein domain III of dengue virus serotype DV-4) (dengue virus serotype DV-4, UniProt P09866 572-679).
T2 construct: also called DENV-4
The assay can be described thus: competition ELISA; column 'EDIII-DV4'.

Assay [3] concerns the target T3, Thailand/1997 (serotype IV EDIII).
T3 E protein domain III (EDIII): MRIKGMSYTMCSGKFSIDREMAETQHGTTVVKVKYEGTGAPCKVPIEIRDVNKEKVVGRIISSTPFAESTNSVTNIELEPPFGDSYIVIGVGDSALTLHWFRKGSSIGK
The assay can be described thus: ELISA; row Thailand/1997, serotype IV, genotype III.

Assay [4] has as its target T4, Puerto Rico/1977 (serotype III EDIII).
T4 construct: Genotype IV; also called ED3-DV3/PuertoRico77
T4 E protein domain III (EDIII): T1 E protein domain III (EDIII) with T12S, N13G, V33I, V40A, G51A, I91T, N94K, K97R
The assay can be described thus: ELISA; row Puerto Rico/1977, serotype III, genotype IV.

For assay [5], the target named is T5, Singapore/2008 (serotype II EDIII).
T5 construct: also called ED3-DV2/Sing08; DENV-2 Sing
The assay can be described thus: ELISA; row Singapore/2008, serotype II, genotype Cosmopolitan.

Assay [6] deals with T2, EDIII-DV4 (E protein domain III of …). The assay can be described thus: competition ELISA; column 'EDIII-DV4 [1/7]'.
Assay [7] has the same target.
Assay [8] addresses T6, Philippines/1956 (H87)* (serotype III EDIII) (Dengue virus 3).
T6 construct: isolated EDIII protein
The assay can be described thus: SPR; row Philippines/1956 (H87)*, serotype III, genotype I.

For assay [9], the target named is T7, Vietnam/2007 (serotype II EDIII).
T7 construct: Genotype Asian II; also called ED3-DV2/Viet07
T7 E protein domain III (EDIII): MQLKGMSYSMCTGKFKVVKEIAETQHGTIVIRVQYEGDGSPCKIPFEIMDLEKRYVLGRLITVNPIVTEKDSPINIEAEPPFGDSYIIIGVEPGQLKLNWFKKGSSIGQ
The assay can be described thus: SPR; row Vietnam/2007, serotype II, genotype Asian II.

Assay [10] deals with T8, Singapore/2009 (serotype III EDIII).
T8 construct: also called ED3-DV3/Sing09; DENV-3 Sing
T8 E protein domain III (EDIII): T1 E protein domain III (EDIII) with T12Q, T14A, V40A, N94K

Assay [11] has as its target T9, Peru/1995 (serotype II EDIII).
T9 construct: also called ED3-DV2/Peru95; DENV-2 Peru
The assay can be described thus: Kd table, method not stated; Ag DENV-2 Peru.

Assay [12] addresses T10, Venezuela/2008 (serotype IV EDIII).
T10 E protein domain III (EDIII): T3 E protein domain III (EDIII) with R19K, T38A, I60V, S63A, F66L, S69N, D93N
The assay can be described thus: SPR; row Venezuela/2008, serotype IV, genotype IIa.

Assay [13] concerns the target T11, Cambodia/2008 (serotype III EDIII).
T11 construct: Genotype II; also called ED3-DV3/Cambodia08
T11 E protein domain III (EDIII): T1 E protein domain III (EDIII) with T12L, V40A, N57S, N94K
The assay can be described thus: SPR; row Cambodia/2008, serotype III, genotype II.

The target of assay [14] is T12, Singapore/2010 (serotype IV EDIII).
T12 construct: also called ED3-DV4/Sing10; DENV-4 Sing
T12 E protein domain III (EDIII): T3 E protein domain III (EDIII) with R19K, T38A, S69N
The assay can be described thus: ELISA; row Singapore/2010, serotype IV, genotype IIb.

For assay [15] the target is unchanged. The assay can be described thus: Kd table, method not stated; Ag DENV-4 Sing.
The target in assay [16] is T4, Puerto Rico/1977 (serotype III EDIII). The assay can be described thus: SPR; row Puerto Rico/1977, serotype III, genotype IV.
The target in assay [17] is T6, Philippines/1956 (H87)* (serotype III …).
Assay [18] deals with ED3-DV4/H241/Phil56 (EDIII of DENV-4 strain H241) (dengue virus serotype DENV-4, strain …, UniProt Q58HT7 572-679). The assay can be described thus: Kd table, method not stated; Ag DENV-4 Phil.
The target in assay [19] is T13, EDIII-DV1 (E protein domain III of dengue virus serotype DV-1) (dengue virus serotype DV-1, UniProt P17763 573-680).
T13 construct: also called DENV-1; EDIII of DV-1
T13 chain: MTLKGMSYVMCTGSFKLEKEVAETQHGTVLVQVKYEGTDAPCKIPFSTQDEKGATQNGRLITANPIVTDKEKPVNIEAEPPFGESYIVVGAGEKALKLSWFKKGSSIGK

B1: antibody D88 (antibody, V domains shown)
VH: QVQLVQSGAEVKKPGASVKVSCKAGFNIKDVYMSWVRQAPEQGLEWMGRIDPENGDTKYDPKLQGRVTMTADTSTNTAYMELRSLRSDDTAVYYCARGWEGFAYWGQGTLVTVSS
VL: DIVMTQSPASLAVSLGERATISCRASENVDKYGNSFMHWYQQKPGQPPKLLIYRASELQWGVPDRFSGSGSGTDFTLTISSLQAEDVAVYYCQRSNEVPWTFGQGTKLEIK
notes: also called mAb D88
On to B1, for which the Kd in [1] was 3.3 nM; in [2] it was 6.12 nM; in [3], 612 nM; in assay [4], 1.36 nM; in [5], < 0.1 nM; in assay [6], 3.12 nM. For the same molecule, the Kd in assay [7] was 3.12 nM; in assay [8], 1 nM; in assay [9] it was 0.014 nM; in [10], 0.33 nM; in assay [11] it was < 0.1 nM; in assay [12], 3.03 nM. Further, the Kd in assay [13] stood at 2.47 nM; in [14], 8.43 nM; in assay [15], 8.4 nM; in [16], 1.4 nM; in [17], 1.2 nM; in [18], 148 nM. In assay [19], this molecule gave a dissociation constant (Kd) of 0.041 nM.
